Laboratory results as given in article PMC12416549 (2024).
Numbering of substitutions follows the chain as printed. Names and notes keep the numbering of the source.

T1: TNFR2 (UniProt P20333 23-212)
T1 chain: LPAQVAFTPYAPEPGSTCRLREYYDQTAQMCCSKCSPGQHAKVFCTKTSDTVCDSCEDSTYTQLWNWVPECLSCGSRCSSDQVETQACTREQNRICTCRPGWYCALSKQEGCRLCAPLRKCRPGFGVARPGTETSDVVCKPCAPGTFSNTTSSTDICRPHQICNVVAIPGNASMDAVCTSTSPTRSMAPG

T2: TNFR1 (Homo sapiens, UniProt P19438)
T2 chain: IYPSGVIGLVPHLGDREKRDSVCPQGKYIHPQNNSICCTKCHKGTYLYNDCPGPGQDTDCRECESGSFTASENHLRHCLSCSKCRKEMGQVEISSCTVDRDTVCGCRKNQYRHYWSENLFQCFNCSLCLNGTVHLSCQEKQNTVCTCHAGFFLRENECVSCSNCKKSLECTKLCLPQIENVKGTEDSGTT

B1: TNFR2_mb1 (designed binder)
chain: LNPEQVAKIGAAIDAGRKYLDAKIEEAKKTLTLRTAQALLVIRSQYERAVDTLFTDPSAAEKELAATLATIDRLLKEHPELAAEIKAFIRSTMAEIRALLAASLAA
B2: TNFR1 (protein)
chain: LVPHLGDREKRDSVCPQGKYIHPQNNSICCTKCHKGTYLYNDCPGPGQDTDCRECESGSFTASENHLRHCLSCSKCRKEMGQVEISSCTVDRDTVCGCRKNQYRHYWSENLFQCFNCSLCLNGTVHLSCQEKQNTVCTCHAGFFLRENECVSCSNCKKSLECTKLCLPQIENVKGTEDSGTT
B3: OX40 (protein)
chain: LHCVGDTYPSNDRCCHECRPGNGMVSRCSRSQNTVCRPCGPGFYNDVVSSKPCKPCTWCNLRSGSERKQLCTATQDTVCRCRAGTQPLDSYKPGVDCAPCPPGHFSPGDNQACKPWTNCTLAGKHTLQPASNSSDAICEDRDPPATQPQETQGPPARPITVQPTEAWPRTSQGPSTRPVEVPGGRA
B4: E84R (designed binder)
chain: MTLQELLREEALRRAEAEAFRYALELLAEKFPEQKEYLLDLAEEIESQIRSLSGVDVEDVRKFLDKEWAWVKELLAEHPAELARVEAARAARLAELRAEVEAKVAA
B5: S51L (designed binder)
chain: B4 chain with S51L, R84E
B6: A17R (designed binder)
chain: B4 chain with A17R, R84E
B7: D56W (designed binder)
chain: B4 chain with D56W, R84E
B8: R89K (designed binder)
chain: B4 chain with R84E, R89K
B9: Y37R (designed binder)
chain: B4 chain with Y37R, R84E
B10: E25V (designed binder)
chain: B4 chain with E25V, R84E
B11: K62Q (designed binder)
chain: B4 chain with K62Q, R84E
B12: E99K (designed binder)
chain: B4 chain with R84E, E99K
B13: A11F (designed binder)
chain: B4 chain with A11F, R84E
B14: V60N (designed binder)
chain: B4 chain with V60N, R84E
B15: A76K (designed binder)
chain: B4 chain with A76K, R84E
B16: V71Q (designed binder)
chain: B4 chain with V71Q, R84E
B17: R61G (designed binder)
chain: B4 chain with R61G, R84E
B18: A23M (designed binder)
chain: B4 chain with A23M, R84E
B19: E16N (designed binder)
chain: B4 chain with E16N, R84E
B20: L93H (designed binder)
chain: B4 chain with R84E, L93H
B21: E43I (designed binder)
chain: B4 chain with E43I, R84E
B22: E81Q (designed binder)
chain: B4 chain with E81Q, R84E
B23: K62V (designed binder)
chain: B4 chain with K62V, R84E
B24: T2N (designed binder)
chain: B4 chain with T2N, R84E
B25: S51M (designed binder)
chain: B4 chain with S51M, R84E
B26: Q48Y (designed binder)
chain: B4 chain with Q48Y, R84E
B27: K62Y (designed binder)
chain: B4 chain with K62Y, R84E
B28: P79Y (designed binder)
chain: B4 chain with P79Y, R84E
B29: L3P (designed binder)
chain: B4 chain with L3P, R84E
B30: R97A (designed binder)
chain: B4 chain with R84E, R97A
B31: D40P (designed binder)
chain: B4 chain with D40P, R84E
B32: R61Y (designed binder)
chain: B4 chain with R61Y, R84E
B33: L93T (designed binder)
chain: B4 chain with R84E, L93T
B34: R14S (designed binder)
chain: B4 chain with R14S, R84E
B35: F20C (designed binder)
chain: B4 chain with F20C, R84E
B36: E10I (designed binder)
chain: B4 chain with E10I, R84E
B37: E25N (designed binder)
chain: B4 chain with E25N, R84E
B38: D56C (designed binder)
chain: B4 chain with D56C, R84E
B39: A19M (designed binder)
chain: B4 chain with A19M, R84E
B40: L24Q (designed binder)
chain: B4 chain with L24Q, R84E
B41: S47I (designed binder)
chain: B4 chain with S47I, R84E
B42: L38W (designed binder)
chain: B4 chain with L38W, R84E
B43: L6Y (designed binder)
chain: B4 chain with L6Y, R84E

Molecular target: T1, TNFR2
Assay: SPR

| koff | Binder |
| --- | --- |
| 0.00277 s⁻¹ | B1 |

molecular target: TNFR1_mb2; assay: SPR

| Kd | koff | Binder |
| --- | --- | --- |
| 24.5 nM | 0.0773 s⁻¹ | B2 |

molecular target: OX40_mb1; assay: SPR

| Kd | koff | Binder |
| --- | --- | --- |
| 30 nM | 0.033 s⁻¹ | B3 |

molecular target: TNFR1_mb1; assay: SPR

| Kd | koff | Binder |
| --- | --- | --- |
| 29 nM | 0.134 s⁻¹ | B2 |

Molecular target: T2, TNFR1
Assay: yeast display SC50

| apparent Kd (screen) | Binder |
| --- | --- |
| 0.79 nM | B4 |
| 0.653 nM | B5 |
| 0.539 nM | B6 |
| 1.69 nM | B7 |
| 0.539 nM | B8 |
| 4.83 nM | B9 |
| 0.593 nM | B10 |
| 0.539 nM | B11 |
| 0.539 nM | B12 |
| 0.718 nM | B13 |
| 0.956 nM | B14 |
| 0.718 nM | B15 |
| 0.869 nM | B16 |
| 2.25 nM | B17 |
| 0.539 nM | B18 |
| 0.446 nM | B19 |
| 0.446 nM | B20 |
| 0.539 nM | B21 |
| 0.49 nM | B22 |
| 0.49 nM | B23 |

| apparent Kd (screen) | Binder |
| --- | --- |
| 0.956 nM | B24 |
| 0.718 nM | B25 |
| 11.4 nM | B26 |
| 0.446 nM | B27 |
| 0.869 nM | B28 |
| 2.73 nM | B29 |
| 0.718 nM | B30 |
| 9.41 nM | B31 |
| 10.4 nM | B32 |
| 0.653 nM | B33 |
| 0.49 nM | B34 |
| 1.69 nM | B35 |
| 1.16 nM | B36 |
| 0.869 nM | B37 |
| 0.956 nM | B38 |
| 0.539 nM | B39 |
| 0.79 nM | B40 |
| 0.956 nM | B41 |
| 0.49 nM | B42 |
| 5.31 nM | B43 |
